Assay results from US20260242735A1 (UNIVERSIT T BASEL, published 2026).

B1: Refmab #3 (antibody, human IgG1, V domains shown)
VH: QVQLVQSGAEVKKPGSSVKVSCKASGYTFTDYNMHWVRQAPGQGLEWIGYIYPYNGGTGYNQKFKSKATITADESTNTAYMELSSLRSEDTAVYYCARGRPAMDYWGQGTLVTVSS
VL: DIQMTQSPSSLSASVGDRVTITCRASESVDNYGISFMNWFQQKPGKAPKLLIYAASNQGSGVPSRFSGSGSGTDFTLTISSLQPDDFATYYCQQSKEVPWTFGQGTKVEIK
notes: Tested in IgG format; human IgG1 Fc silent (PG-LALA)
B2: Refmab #4 (antibody, human IgG1, V domains shown)
VH: QVQLVQSGAEVKKPGESVKVSCKASGYTFTNYGMNWVKQAPGQGLEWMGWINTYTGEPTYADKFQGRVTMTTDTSTSTAYMEIRNLGGDDTAVYYCARWSWSDGYYVYFDYWGQGTSVTVSS
VL: DIVMTQSPDSLTVSLGERTTINCKSSQSVLDSSTNKNSLAWYQQKPGQPPKLLLSWASTRESGIPDRFSGSGSGTDFTLTIDSPQPEDSATYYCQQSAHFPITFGQGTRLEIK
notes: as for B1

target: human CD33 variant P48W (human, UniProt P20138 18-364); assay: flow cytometry, IgG on cells expressing the mutant
Sequence (P20138 18-364 P48W limits assumed): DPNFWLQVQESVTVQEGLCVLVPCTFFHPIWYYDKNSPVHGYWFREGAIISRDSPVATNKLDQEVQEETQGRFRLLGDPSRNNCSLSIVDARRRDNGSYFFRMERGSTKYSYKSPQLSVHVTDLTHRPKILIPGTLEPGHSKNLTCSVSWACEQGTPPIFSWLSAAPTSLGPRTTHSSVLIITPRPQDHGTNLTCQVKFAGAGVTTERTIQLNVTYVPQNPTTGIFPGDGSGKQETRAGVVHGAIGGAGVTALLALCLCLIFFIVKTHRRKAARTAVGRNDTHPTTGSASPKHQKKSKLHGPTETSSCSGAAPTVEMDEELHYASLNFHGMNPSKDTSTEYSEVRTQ

Row | Mean % WT Binding | Binder
1 | 96.4 % of WT | B1
2 | 1.3 % of WT | B2

target: human CD33 variant P48F (human, UniProt P20138 18-364); assay: flow cytometry, IgG on cells expressing the mutant
Sequence (P20138 18-364 P48F limits assumed): as the sequence (P20138 18-364 P48W limits assumed) above, with W31F counted along it

Row | Mean % WT Binding | Binder
3 | 100 % of WT | B1
4 | 0.3 % of WT | B2

target: human CD33 variant P48K (human, UniProt P20138 18-364); assay: flow cytometry, IgG on cells expressing the mutant
Sequence (P20138 18-364 P48K limits assumed): as the sequence (P20138 18-364 P48W limits assumed) above, with W31K counted along it

Row | Mean % WT Binding | Binder
5 | 67.3 % of WT | B1
6 | 0 % of WT | B2

target: human CD33 variant K52E (human, UniProt P20138 18-364); assay: flow cytometry, IgG on cells expressing the mutant
Sequence (P20138 18-364 K52E limits assumed): as the sequence (P20138 18-364 P48W limits assumed) above, with W31P, K35E counted along it

Row | Mean % WT Binding | Binder
7 | 106 % of WT | B1
8 | 51.4 % of WT | B2

target: human CD33 variant Y127R (human, UniProt P20138 18-364); assay: flow cytometry, IgG on cells expressing the mutant
Sequence (P20138 18-364 Y127R limits assumed): as the sequence (P20138 18-364 P48W limits assumed) above, with W31P, Y110R counted along it

Row | Mean % WT Binding | Binder
9 | 65.9 % of WT | B1
10 | 116 % of WT | B2

target: human CD33 variant Y49S (human, UniProt P20138 18-364); assay: flow cytometry, IgG on cells expressing the mutant
Sequence (P20138 18-364 Y49S limits assumed): as the sequence (P20138 18-364 P48W limits assumed) above, with W31P, Y32S counted along it

Row | Mean % WT Binding | Binder
11 | 107 % of WT | B1

target: human CD33 variant Y50L (human, UniProt P20138 18-364); assay: flow cytometry, IgG on cells expressing the mutant
Sequence (P20138 18-364 Y50L limits assumed): as the sequence (P20138 18-364 P48W limits assumed) above, with W31P, Y33L counted along it

Row | Mean % WT Binding | Binder
12 | 106 % of WT | B1
13 | 1.9 % of WT | B2

target: human CD33 variant I47F (human, UniProt P20138 18-364); assay: flow cytometry, IgG on cells expressing the mutant
Sequence (P20138 18-364 I47F limits assumed): as the sequence (P20138 18-364 P48W limits assumed) above, with I30F, W31P counted along it

Row | Mean % WT Binding | Binder
14 | 102 % of WT | B1
15 | 102 % of WT | B2

target: human CD33 variant Y49D (human, UniProt P20138 18-364); assay: flow cytometry, IgG on cells expressing the mutant
Sequence (P20138 18-364 Y49D limits assumed): as the sequence (P20138 18-364 P48W limits assumed) above, with W31P, Y32D counted along it

Row | Mean % WT Binding | Binder
16 | 94.4 % of WT | B1
17 | 2.5 % of WT | B2

target: human CD33 variant I47Q (human, UniProt P20138 18-364); assay: flow cytometry, IgG on cells expressing the mutant
Sequence (P20138 18-364 I47Q limits assumed): as the sequence (P20138 18-364 P48W limits assumed) above, with I30Q, W31P counted along it

Row | Mean % WT Binding | Binder
18 | 106 % of WT | B1
19 | 80.1 % of WT | B2

target: human CD33 variant P48Y (human, UniProt P20138 18-364); assay: flow cytometry, IgG on cells expressing the mutant
Sequence (P20138 18-364 P48Y limits assumed): as the sequence (P20138 18-364 P48W limits assumed) above, with W31Y counted along it

Row | Mean % WT Binding | Binder
20 | 90.3 % of WT | B1
21 | 0.6 % of WT | B2

target: human CD33 variant K52L (human, UniProt P20138 18-364); assay: flow cytometry, IgG on cells expressing the mutant
Sequence (P20138 18-364 K52L limits assumed): as the sequence (P20138 18-364 P48W limits assumed) above, with W31P, K35L counted along it

Row | Mean % WT Binding | Binder
22 | 94.9 % of WT | B1
23 | 88.1 % of WT | B2

target: human CD33 variant R122E (human, UniProt P20138 18-364); assay: flow cytometry, IgG on cells expressing the mutant
Sequence (P20138 18-364 R122E limits assumed): as the sequence (P20138 18-364 P48W limits assumed) above, with W31P, R105E counted along it

Row | Mean % WT Binding | Binder
24 | 101 % of WT | B1
25 | 79.2 % of WT | B2

target: human CD33 variant P48I (human, UniProt P20138 18-364); assay: flow cytometry, IgG on cells expressing the mutant
Sequence (P20138 18-364 P48I limits assumed): as the sequence (P20138 18-364 P48W limits assumed) above, with W31I counted along it

Row | Mean % WT Binding | Binder
26 | 122 % of WT | B1
27 | 31.9 % of WT | B2

target: human CD33 variant P48H (human, UniProt P20138 18-364); assay: flow cytometry, IgG on cells expressing the mutant
Sequence (P20138 18-364 P48H limits assumed): as the sequence (P20138 18-364 P48W limits assumed) above, with W31H counted along it

Row | Mean % WT Binding | Binder
28 | 87.6 % of WT | B1
29 | 2.9 % of WT | B2

target: human CD33 variant Y50H (human, UniProt P20138 18-364); assay: flow cytometry, IgG on cells expressing the mutant
Sequence (P20138 18-364 Y50H limits assumed): as the sequence (P20138 18-364 P48W limits assumed) above, with W31P, Y33H counted along it

Row | Mean % WT Binding | Binder
30 | 111 % of WT | B1
31 | 2 % of WT | B2

target: human CD33 variant Y50D (human, UniProt P20138 18-364); assay: flow cytometry, IgG on cells expressing the mutant
Sequence (P20138 18-364 Y50D limits assumed): as the sequence (P20138 18-364 P48W limits assumed) above, with W31P, Y33D counted along it

Row | Mean % WT Binding | Binder
32 | 100 % of WT | B1
33 | 0.9 % of WT | B2

target: human CD33 variant Y127H (human, UniProt P20138 18-364); assay: flow cytometry, IgG on cells expressing the mutant
Sequence (P20138 18-364 Y127H limits assumed): as the sequence (P20138 18-364 P48W limits assumed) above, with W31P, Y110H counted along it

Row | Mean % WT Binding | Binder
34 | 75.4 % of WT | B1
35 | 105 % of WT | B2

target: human CD33 variant P48D (human, UniProt P20138 18-364); assay: flow cytometry, IgG on cells expressing the mutant
Sequence (P20138 18-364 P48D limits assumed): as the sequence (P20138 18-364 P48W limits assumed) above, with W31D counted along it

Row | Mean % WT Binding | Binder
36 | 100 % of WT | B1
37 | 2 % of WT | B2

target: human CD33 variant Y129S (human, UniProt P20138 18-364); assay: flow cytometry, IgG on cells expressing the mutant
Sequence (P20138 18-364 Y129S limits assumed): as the sequence (P20138 18-364 P48W limits assumed) above, with W31P, Y112S counted along it

Row | Mean % WT Binding | Binder
38 | 107 % of WT | B2

target: human CD33 variant Y49P (human, UniProt P20138 18-364); assay: flow cytometry, IgG on cells expressing the mutant
Sequence (P20138 18-364 Y49P limits assumed): as the sequence (P20138 18-364 P48W limits assumed) above, with W31P, Y32P counted along it

Row | Mean % WT Binding | Binder
39 | 92.1 % of WT | B1
40 | 1.2 % of WT | B2

target: human CD33 variant M120V (human, UniProt P20138 18-364); assay: flow cytometry, IgG on cells expressing the mutant
Sequence (P20138 18-364 M120V limits assumed): as the sequence (P20138 18-364 P48W limits assumed) above, with W31P, M103V counted along it

Row | Mean % WT Binding | Binder
41 | 51.1 % of WT | B1
42 | 100 % of WT | B2

target: human CD33 variant P48N (human, UniProt P20138 18-364); assay: flow cytometry, IgG on cells expressing the mutant
Sequence (P20138 18-364 P48N limits assumed): as the sequence (P20138 18-364 P48W limits assumed) above, with W31N counted along it

Row | Mean % WT Binding | Binder
43 | 98.8 % of WT | B1
44 | 3.8 % of WT | B2

target: human CD33 variant P48T (human, UniProt P20138 18-364); assay: flow cytometry, IgG on cells expressing the mutant
Sequence (P20138 18-364 P48T limits assumed): as the sequence (P20138 18-364 P48W limits assumed) above, with W31T counted along it

Row | Mean % WT Binding | Binder
45 | 102 % of WT | B1
46 | 11.7 % of WT | B2

target: human CD33 variant Y50N (human, UniProt P20138 18-364); assay: flow cytometry, IgG on cells expressing the mutant
Sequence (P20138 18-364 Y50N limits assumed): as the sequence (P20138 18-364 P48W limits assumed) above, with W31P, Y33N counted along it

Row | Mean % WT Binding | Binder
47 | 92.4 % of WT | B1
48 | 2.3 % of WT | B2

target: human CD33 variant S131G (human, UniProt P20138 18-364); assay: flow cytometry, IgG on cells expressing the mutant
Sequence (P20138 18-364 S131G limits assumed): as the sequence (P20138 18-364 P48W limits assumed) above, with W31P, S114G counted along it

Row | Mean % WT Binding | Binder
49 | 100 % of WT | B1
50 | 96.9 % of WT | B2

target: human CD33 variant P48G (human, UniProt P20138 18-364); assay: flow cytometry, IgG on cells expressing the mutant
Sequence (P20138 18-364 P48G limits assumed): as the sequence (P20138 18-364 P48W limits assumed) above, with W31G counted along it

Row | Mean % WT Binding | Binder
51 | 108 % of WT | B1
52 | 0.4 % of WT | B2

target: human CD33 variant R122F (human, UniProt P20138 18-364); assay: flow cytometry, IgG on cells expressing the mutant
Sequence (P20138 18-364 R122F limits assumed): as the sequence (P20138 18-364 P48W limits assumed) above, with W31P, R105F counted along it

Row | Mean % WT Binding | Binder
53 | 106 % of WT | B1
54 | 58.1 % of WT | B2

target: human CD33 variant R122I (human, UniProt P20138 18-364); assay: flow cytometry, IgG on cells expressing the mutant
Sequence (P20138 18-364 R122I limits assumed): as the sequence (P20138 18-364 P48W limits assumed) above, with W31P, R105I counted along it

Row | Mean % WT Binding | Binder
55 | 112 % of WT | B1
56 | 85.8 % of WT | B2

target: human CD33 variant D51Y (human, UniProt P20138 18-364); assay: flow cytometry, IgG on cells expressing the mutant
Sequence (P20138 18-364 D51Y limits assumed): as the sequence (P20138 18-364 P48W limits assumed) above, with W31P, D34Y counted along it

Row | Mean % WT Binding | Binder
57 | 87.2 % of WT | B1
58 | 61.9 % of WT | B2

target: human CD33 variant Y50Q (human, UniProt P20138 18-364); assay: flow cytometry, IgG on cells expressing the mutant
Sequence (P20138 18-364 Y50Q limits assumed): as the sequence (P20138 18-364 P48W limits assumed) above, with W31P, Y33Q counted along it

Row | Mean % WT Binding | Binder
59 | 95.4 % of WT | B1
60 | 3.2 % of WT | B2

target: human CD33 variant P48L (human, UniProt P20138 18-364); assay: flow cytometry, IgG on cells expressing the mutant
Sequence (P20138 18-364 P48L limits assumed): as the sequence (P20138 18-364 P48W limits assumed) above, with W31L counted along it

Row | Mean % WT Binding | Binder
61 | 111 % of WT | B1
62 | 1 % of WT | B2

target: human CD33 variant K52I (human, UniProt P20138 18-364); assay: flow cytometry, IgG on cells expressing the mutant
Sequence (P20138 18-364 K52I limits assumed): as the sequence (P20138 18-364 P48W limits assumed) above, with W31P, K35I counted along it

Row | Mean % WT Binding | Binder
63 | 88.7 % of WT | B1
64 | 61.9 % of WT | B2

target: human CD33 variant I47Y (human, UniProt P20138 18-364); assay: flow cytometry, IgG on cells expressing the mutant
Sequence (P20138 18-364 I47Y limits assumed): as the sequence (P20138 18-364 P48W limits assumed) above, with I30Y, W31P counted along it

Row | Mean % WT Binding | Binder
65 | 109 % of WT | B1
66 | 96 % of WT | B2

target: human CD33 variant I47L (human, UniProt P20138 18-364); assay: flow cytometry, IgG on cells expressing the mutant
Sequence (P20138 18-364 I47L limits assumed): as the sequence (P20138 18-364 P48W limits assumed) above, with I30L, W31P counted along it

Row | Mean % WT Binding | Binder
67 | 102 % of WT | B1
68 | 88.5 % of WT | B2

target: human CD33 variant Y127E (human, UniProt P20138 18-364); assay: flow cytometry, IgG on cells expressing the mutant
Sequence (P20138 18-364 Y127E limits assumed): as the sequence (P20138 18-364 P48W limits assumed) above, with W31P, Y110E counted along it

Row | Mean % WT Binding | Binder
69 | 21.5 % of WT | B1
70 | 104 % of WT | B2
